Results as given in ChEMBL document CHEMBL4680222, “Sensitive fluorogenic substrates for sirtuin deacylase inhibitor discovery” (Eur J Med Chem, 2020).

Tests used:
[1] = compound: CC(=O)NCCCC[C@H](NC(=O)[C@H](CC(C)C)NC(=O)[C@H](CCCCN)NC(=O)[C@H](Cc1ccc(O)cc1)NC(C)=O)C(=O)Nc1ccc2c(C)cc(=O)oc2c1; test: (§1) Substrate activity at human N-terminal His-tagged SIRT3 (122 to 391 residues) expressed in Escherichia coli assessed as Km measured after 1 hr in presence of NAD+ and trypsin by Michaelis-Menten kinetic model based fluorescence assay
[2] = compound: CC[C@H](C)[C@H](NC(=O)[C@H](CC(C)C)NC(=O)[C@H](CCCNC(=N)N)NC(C)=O)C(=O)N[C@@H](CCCCNC(C)=O)C(=O)Nc1ccc2c(C)cc(=O)oc2c1; test: as §1
[3] = compound: CC(=O)NCCCC[C@H](NC(=O)[C@H](CC(C)C)NC(=O)[C@H](CCCCN)NC(=O)[C@H](Cc1ccc(O)cc1)NC(C)=O)C(=O)Nc1ccc2c(C)cc(=O)oc2c1; test: (§2) Substrate activity at human N-terminal His-tagged SIRT3 (122 to 391 residues) expressed in Escherichia coli assessed as Vmax measured after 1 hr in presence of NAD+ and trypsin by Michaelis-Menten kinetic model based fluorescence assay
[4] = compound: CC[C@H](C)[C@H](NC(=O)[C@H](CC(C)C)NC(=O)[C@H](CCCNC(=N)N)NC(C)=O)C(=O)N[C@@H](CCCCNC(C)=O)C(=O)Nc1ccc2c(C)cc(=O)oc2c1; test: as §2
[5] = compound: CC(=O)NCCCC[C@H](NC(=O)[C@H](CC(C)C)NC(=O)[C@H](CCCCN)NC(=O)[C@H](Cc1ccc(O)cc1)NC(C)=O)C(=O)Nc1ccc2c(C)cc(=O)oc2c1; test: (§3) Substrate activity at human N-terminal His-tagged SIRT3 (122 to 391 residues) expressed in Escherichia coli assessed as Kcat measured after 1 hr in presence of NAD+ and trypsin by Michaelis-Menten kinetic model based fluorescence assay
[6] = compound: CC[C@H](C)[C@H](NC(=O)[C@H](CC(C)C)NC(=O)[C@H](CCCNC(=N)N)NC(C)=O)C(=O)N[C@@H](CCCCNC(C)=O)C(=O)Nc1ccc2c(C)cc(=O)oc2c1; test: as §3
[7] = compound: CC(=O)NCCCC[C@H](NC(=O)[C@H](CC(C)C)NC(=O)[C@H](CCCCN)NC(=O)[C@H](Cc1ccc(O)cc1)NC(C)=O)C(=O)Nc1ccc2c(C)cc(=O)oc2c1; test: (§4) Substrate activity at human N-terminal His-tagged SIRT3 (122 to 391 residues) expressed in Escherichia coli assessed as ratio of Kcat to Km measured after 1 hr in presence of NAD+ and trypsin by Michaelis-Menten kinetic model based fluorescence assay
[8] = compound: CC[C@H](C)[C@H](NC(=O)[C@H](CC(C)C)NC(=O)[C@H](CCCNC(=N)N)NC(C)=O)C(=O)N[C@@H](CCCCNC(C)=O)C(=O)Nc1ccc2c(C)cc(=O)oc2c1; test: as §4

B1: NAD-dependent protein deacetylase sirtuin-3, mitochondrial (Homo sapiens), Q9NTG7 (protein)
chain: MAFWGWRAAAALRLWGRVVERVEAGGGVGPFQACGCRLVLGGRDDVSAGLRGSHGARGEPLDPARPLQRPPRPEVPRAFRRQPRAAAPSFFFSSIKGGRRSISFSVGASSVVGSGGSSDKGKLSLQDVAELIRARACQRVVVMVGAGISTPSGIPDFRSPGSGLYSNLQQYDLPYPEAIFELPFFFHNPKPFFTLAKELYPGNYKPNVTHYFLRLLHDKGLLLRLYTQNIDGLERVSGIPASKLVEAHGTFASATCTVCQRPFPGEDIRADVMADRVPRCPVCTGVVKPDIVFFGEPLPQRFLLHVVDFPMADLLLILGTSLEVEPFASLTEAVRSSVPRLLINRDLVGPLAWHPRSRDVAQLGDVVHGVESLVELLGWTEEMRDLVQRETGKLDGPDK
Km [1]: 63.4 µM | Km [2]: 6.52 µM | Vmax [3]: 14.6 nM/min | Vmax [4]: 33.5 nM/min | kcat [5]: 2.44 10^-3/s | kcat [6]: 5.58 10^-3/s | kcat/Km [7]: 26.1 M⁻¹ s⁻¹ | kcat/Km [8]: 850 M⁻¹ s⁻¹
